Source: patent publication US20260232827A1 (Zymeworks, published 2026)

B1: lifastuzumab (v18993), reference anti-NaPi2b antibody (antibody, human IgG1, kappa)
heavy 1: GEVQLVESGGGLVQPGGSLRLSCAASGFSFSDFAMSWVRQAPGKGLEWVATIGRVAFHTYYPDSMKGRFTISRDNSKNTLYLQMNSLRAEDTAVYYCARHRGFDVGHFDFWGQGTLVTVSSASTKGPSVFPLAPSSKSTSGGTAALGCLVKDYFPEPVTVSWNSGALTSGVHTFPAVLQSSGLYSLSSVVTVPSSSLGTQTYICNVNHKPSNTKVDKKVEPKSCDKTHTCPPCPAPELLGGPSVFLFPPKPKDTLMISRTPEVTCVVVDVSHEDPEVKFNWYVDGVEVHNAKTKPREEQYNSTYRVVSVLTVLHQDWLNGKEYKCKVSNKALPAPIEKTISKAKGQPREPQVYVYPPSRDELTKNQVSLTCLVKGFYPSDIAVEWESNGQPENNYKTTPPVLDSDGSFALVSKLTVDKSRWQQGNVFSCSVMHEALHNHYTQKSLSLSPG
heavy 2: not shown
light: GDIQMTQSPSSLSASVGDRVTITCRSSETLVHSSGNTYLEWYQQKPGKAPKLLIYRVSNRFSGVPSRFSGSGSGTDFTLTISSLQPEDFATYYCFQGSFNPLTFGQGTKVEIKRTVAAPSVFIFPPSDEQLKSGTASVVCLLNNFYPREAKVQWKVDNALQSGNSQESVTEQDSKDSTYSLSSTLTLSKADYEKHKVYACEVTHQGLSSPVTKSFNRGEC
B2: palivizumab (v21995), anti-RSV antibody, negative control (antibody, human IgG1, kappa, V domains shown)
VH: QVTLRESGPALVKPTQTLTLTCTFSGFSLSTSGMSVGWIRQPPGKALEWLADIWWDDKKDYNPSLKSRLTISKDTSKNQVVLKVTNMDPADTATYYCARSMITNWYFDVWGAGTTVTVSS
VL: DIQMTQSPSTLSASVGDRVTITCKSQLSVGYMHWYQQKPGKAPKLLIYDTSKLASGVPSRFSGSGSGTEFTLTISSLQPDDFATYYCFQGSGYPFTFGGGTKLEIKR

How the values were obtained:
[1] = biological target: T1, Construct 4 (chimeric human NaPi2b, swap in NaPi2c in 341-358) (human); assay: flow cytometry, transfected HEK293-6e cells, antibody 200 nM;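 also: cells incubated with antibody for 24 h at 4 °C, background taken as average MFI of unstained cells without primary antibody, at least 1,000 events per well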
T1 construct: also called CL_#13435

[2] = biological target: T2, Construct 7 (human NaPi2b del 317-326) (human, UniProt O95436 1-690); assay: as above
T2 construct: also called CL_#29921
T2 sequence: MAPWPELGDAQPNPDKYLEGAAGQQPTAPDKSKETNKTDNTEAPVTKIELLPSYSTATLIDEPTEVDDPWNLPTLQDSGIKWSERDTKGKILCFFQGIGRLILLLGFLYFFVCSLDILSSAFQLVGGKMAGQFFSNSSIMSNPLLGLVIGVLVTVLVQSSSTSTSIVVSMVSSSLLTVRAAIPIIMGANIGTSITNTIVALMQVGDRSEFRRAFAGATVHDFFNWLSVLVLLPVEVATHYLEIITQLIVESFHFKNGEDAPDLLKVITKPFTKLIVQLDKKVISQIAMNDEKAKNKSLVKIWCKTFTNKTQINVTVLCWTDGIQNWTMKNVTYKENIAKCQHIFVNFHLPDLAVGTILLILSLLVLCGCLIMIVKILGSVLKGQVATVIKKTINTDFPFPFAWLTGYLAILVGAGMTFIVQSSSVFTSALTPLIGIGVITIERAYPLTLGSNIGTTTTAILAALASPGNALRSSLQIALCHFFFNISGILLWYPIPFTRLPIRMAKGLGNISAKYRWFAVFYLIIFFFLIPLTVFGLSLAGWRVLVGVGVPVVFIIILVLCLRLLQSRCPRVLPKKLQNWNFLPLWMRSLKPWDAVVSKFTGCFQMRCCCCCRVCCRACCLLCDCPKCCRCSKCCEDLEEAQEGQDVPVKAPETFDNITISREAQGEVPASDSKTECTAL

[3] = biological target: T3, Full length human NaPi2b (sodium-dependent phosphate transporter 2B, SLC34A2) (human, UniProt O95436 1-690); assay: flow cytometry, transfected HEK293-6e cells, antibody 2 nM;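 also: transfected cells exposed to test antibody 24 h at 4 °C to block internalization, at least 1,000 events per well, background is mean MFI of unstained cells lacking primary antibody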
T3 construct: also called huNaPi2b; CL_#13432
T3 sequence: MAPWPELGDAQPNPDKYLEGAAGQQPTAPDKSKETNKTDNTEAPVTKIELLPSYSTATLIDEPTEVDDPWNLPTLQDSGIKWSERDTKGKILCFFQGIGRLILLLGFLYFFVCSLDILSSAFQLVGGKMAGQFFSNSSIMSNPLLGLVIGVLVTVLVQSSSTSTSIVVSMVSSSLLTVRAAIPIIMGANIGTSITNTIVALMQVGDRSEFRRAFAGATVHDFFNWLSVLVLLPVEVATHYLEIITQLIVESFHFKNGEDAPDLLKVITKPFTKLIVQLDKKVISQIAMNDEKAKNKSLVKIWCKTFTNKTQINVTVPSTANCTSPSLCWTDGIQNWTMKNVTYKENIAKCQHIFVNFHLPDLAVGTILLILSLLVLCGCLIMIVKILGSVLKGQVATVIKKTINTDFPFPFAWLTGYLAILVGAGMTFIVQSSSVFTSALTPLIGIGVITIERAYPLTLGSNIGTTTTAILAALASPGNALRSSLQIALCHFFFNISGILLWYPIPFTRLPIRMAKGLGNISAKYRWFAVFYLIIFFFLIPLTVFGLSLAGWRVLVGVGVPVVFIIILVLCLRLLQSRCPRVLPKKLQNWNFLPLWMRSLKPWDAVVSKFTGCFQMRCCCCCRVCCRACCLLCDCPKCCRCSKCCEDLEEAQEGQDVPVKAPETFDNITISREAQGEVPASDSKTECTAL

Row | Binder | Background-Subtracted AF647 Mean Fluorescence Intensity [1] [MFI] | Background-Subtracted AF647 Mean Fluorescence Intensity [2] [MFI] | Background-Subtracted AF647 Mean Fluorescence Intensity [3] [MFI]
1 | B1 | 744 | 21 | 1040
2 | B2 | 12 | -97 | -22
